Laboratory results from patent US11319552B2, “Methods for improving transformation frequency” (SYNGENTA PARTICIPATIONS AG, priority 2016, dated 2022).

Tests used:
immature embryos [1] = assay: Second selection experiment, transformation frequency with 40 mg/L ammonium glufosinate or 5 mg/L bialaphos; type: cell-based, maize
Protocol: 10 mg/L to 40 mg/L of ammonium glufosinate all had survivor transgenic plant candidates for the binary vector comprising PAT variant type 3b. […] A second experiment was performed using 40 mg/L ammonium glufosinate, or using the GS inhibitor bialaphos at 5 mg/L. For this experiment, following transformation the immature embryos were selected, plants were regenerated and rooted, and transgenic plants were identified so that transformation frequency could be calculated.

immature embryos [2] = assay: Kill curve, ammonium glufosinate concentration for selection, survival percentage; type: cell-based, maize; conditions: for % Survival: plants that rooted over immature embryos transformed
Protocol: The expression cassette of PAT variant type 3b (SEQ ID NO: 13) was introduced into a binary vector, now referred to as 23419. Binary vector 18857 (described in Table 2), which expresses cPAT-09, was used as a control. […] For vector 23419, 75-86 immature embryos were transformed using Agrobacteria similar to the method described in Example 4. Selection was performed using 10-80 mg/L of ammonium glufosinate (Ignite®). Following selection, plantlets were regenerated and then transferred to rooting media. The survival percentage (%) is shown as the number of plants that rooted over the number of immature embryos initially transformed.

B1: cPAT-09: control PAT DNA sequence codon optimized to Arabidopsis thaliana (SEQ ID NO: 21); tested here in binary vector 18857 (nucleic acid)
DNA: ATGTCTCCGGAGAGGAGACCAGTTGAGATTAGGCCAGCTACAGCAGCTGATATGGCCGCGGTTTGTGATATCGTTAACCATTACATTGAGACGTCTACAGTGAACTTTAGGACAGAGCCACAAACACCACAAGAGTGGATTGATGATCTAGAGAGGTTGCAAGATAGATACCCTTGGTTGGTTGCTGAGGTTGAGGGTGTTGTGGCTGGTATTGCTTACGCTGGGCCCTGGAAGGCTAGGAACGCTTACGATTGGACAGTTGAGAGTACTGTTTACGTGTCACATAGGCATCAAAGGTTGGGCCTAGGCTCCACATTGTACACACATTTGCTTAAGTCTATGGAGGCGCAAGGTTTTAAGTCAGTGGTTGCTGTTATAGGCCTTCCAAACGATCCATCTGTTAGGTTGCATGAGGCTCTAGGATACACAGCGCGGGGTACACTGCGCGCAGCTGGATACAAGCATGGTGGATGGCATGATGTTGGTTTTTGGCAAAGGGATTTTGAGTTGCCAGCTCCTCCAAGGCCAGTGAGGCCAGTTACCCAGATCTGA
modifications: derived from Streptomyces viridochromogenes
Total # Events (immature embryos [1]; 5 mg/L Bialaphos): 7
Transformation frequency % (TF) (immature embryos [1]; 5 mg/L Bialaphos): 0.875%
Total # Events (immature embryos [1]; 40 mg/L ammonium glufosinate): 5
Transformation frequency % (TF) (immature embryos [1]; 40 mg/L ammonium glufosinate): 0.625%
% Survival (immature embryos [2]; 10 mg/L ammonium glufosinate): 1.3%
% Survival (immature embryos [2]; 20 mg/L ammonium glufosinate): 1.3%
survival of selection (in words) (immature embryos [2]; 40 mg/L ammonium glufosinate): did not survive selection
% Survival (immature embryos [2]; 40 mg/L ammonium glufosinate): 0%
% Survival (immature embryos [2]; 80 mg/L ammonium glufosinate): 0%
